Experimental data: patent publication US20150093375A1

Target: Fzd4 (Homo sapiens (Human)) (UniProt Q9ULV1)
Assay: cell-based or functional assay

UniProt Q9ULV1, sequence (Q9ULV1 37-537 limits assumed, form in doubt): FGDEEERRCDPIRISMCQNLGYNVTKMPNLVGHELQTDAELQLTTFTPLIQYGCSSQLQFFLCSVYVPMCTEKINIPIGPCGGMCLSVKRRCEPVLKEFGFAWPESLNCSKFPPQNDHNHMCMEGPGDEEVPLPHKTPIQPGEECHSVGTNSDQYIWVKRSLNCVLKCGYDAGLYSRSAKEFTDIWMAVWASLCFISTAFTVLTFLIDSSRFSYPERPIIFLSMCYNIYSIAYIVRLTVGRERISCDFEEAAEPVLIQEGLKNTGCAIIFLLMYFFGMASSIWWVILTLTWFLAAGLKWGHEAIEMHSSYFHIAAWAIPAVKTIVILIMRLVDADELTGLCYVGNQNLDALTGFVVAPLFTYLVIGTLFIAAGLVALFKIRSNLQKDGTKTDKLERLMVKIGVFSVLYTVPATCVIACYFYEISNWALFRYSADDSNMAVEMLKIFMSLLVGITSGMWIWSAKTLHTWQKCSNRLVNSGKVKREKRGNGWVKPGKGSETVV

## recombinant Norrin (ligand)
  Topflash reporter activity (firefly divided by renilla), cells overexpressing TSPAN12 against control cells, 10 nM recombinant Norrin: 4 fold
